One test has as its target Fc-iNKG2D.YA (human) (UniProt P26718). The experiment in a line: ELISA; wells coated with Fc-iNKG2D.YA, R3Mab heavy-chain MicAbody titrated. In general terms: An ELISA detects its analyte on a solid surface through an enzyme-linked reagent.
The target in another test is Fc-wtNKG2D (human) (UniProt P26718). Put plainly: ELISA; wells coated with Fc-wtNKG2D, R3Mab heavy-chain MicAbody titrated.
Fc-wtNKG2D (human), sequence (P26718 other isoform, or with tags, fused parts or gaps limits assumed): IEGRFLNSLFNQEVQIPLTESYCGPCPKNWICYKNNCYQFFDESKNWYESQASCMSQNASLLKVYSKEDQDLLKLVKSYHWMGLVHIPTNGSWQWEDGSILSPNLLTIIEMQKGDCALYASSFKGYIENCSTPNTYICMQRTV

Fc-iNKG2D.YA (human), sequence (P26718 other isoform, or with tags, fused parts or gaps limits assumed): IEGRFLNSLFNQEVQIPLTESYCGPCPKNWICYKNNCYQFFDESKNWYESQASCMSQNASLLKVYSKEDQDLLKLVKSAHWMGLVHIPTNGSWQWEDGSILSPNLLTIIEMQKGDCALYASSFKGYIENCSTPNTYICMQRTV

B1: R3Mab heavy-chain fusion of U2S3 (MicAbody) (bispecific antibody, part only; not given: R3Mab variable domains, light chain, Fc, IgG1, not shown: a dimerising Fc or GST)
heavy, part: GGGSEPHSLSYDITVIPKFRPGPRWCAVQGQVDEKTFLHYDCGNKTVTPVSPLGKKLNVTTAWKAQNPVLREVVDILTEQLWDIQLENYTPKEPLTLQARMSCEQKAEGHSSGSWQFSFDGQIFLLFDSEKRMWTTVHPGARKMKEKWENDKVVATKLYLWSMGDCIGWLEDFLMGMDSTLEP
Take B1: the EC50 (read off the curve) (commonly the concentration giving half of the maximal effect) with Fc-iNKG2D.YA (human) was found to be 0.02 nM.

B2: R3Mab heavy-chain fusion of wild-type ULBP2 (MicAbody) (bispecific antibody, part only; not given: R3Mab variable domains, light chain, Fc, not shown: a dimerising Fc or GST)
heavy, part: GGGSDPHSLCYDITVIPKFRPGPRWCAVQGQVDEKTFLHYDCGNKTVTPVSPLGKKLNVTTAWKAQNPVLREVVDILTEQLRDIQLENYTPKEPLTLQARMSCEQKAEGHSSGSWQFSFDGQIFLLFDSEKRMWTTVHPGARKMKEKWENDKVVAMSFHYFSMGDCIGWLEDFLMGMDSTLEPSAGAP
As for B2, the EC50 (read off the curve) with Fc-wtNKG2D (human) was 0.4 nM.

B3: R3Mab heavy-chain fusion of ULBP2 R81W (MicAbody) (bispecific antibody, part only; not given: R3Mab variable domains, light chain, Fc, not shown: a dimerising Fc or GST)
heavy, part: GGGSDPHSLCYDITVIPKFRPGPRWCAVQGQVDEKTFLHYDCGNKTVTPVSPLGKKLNVTTAWKAQNPVLREVVDILTEQLWDIQLENYTPKEPLTLQARMSCEQKAEGHSSGSWQFSFDGQIFLLFDSEKRMWTTVHPGARKMKEKWENDKVVAMSFHYFSMGDCIGWLEDFLMGMDSTLEPSAGAP
In the test with Fc-wtNKG2D (human), B3 yielded an EC50 (read off the curve) of 0.02 nM.

Source of the values: patent US20240277845A1.
